{
  "source": "the NTF2 design screens of Basanta et al. (2020)",
  "experiment": "protease stability score; higher = more stable; yeast display proteolysis, trypsin and chymotrypsin;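 further: relative to predicted unfolded state with 0 unfolded-like and 1 meaning tenfold more protease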",
  "data": [
    {"sequence": "DEDDEFERLFWKKWVDALRTGNEEIIRKMVDPNVKIVFNGKELHGREAVDIVLKRIDHIDDIKLRHSRVVDGRVEITTKIHMKVGDKSIDSETHMSFEKIDGRWIITEMFFV", "values": [
      {"measurement": "protease stability score", "result": 2.59}
    ]},
    {"sequence": "DEDDEFMKRLAEEVIKNLHTGDWESLVHLMDPNALFEFDGVRNHGREQTDRFWEEVHERYPNVREKWDIHTIDVFNGRAKVDSRITFHFDGRDYVHKSEFHLIVFNGKVKSVHIHIR", "values": [
      {"measurement": "protease stability score", "result": 0.158}
    ]},
    {"sequence": "DEDDEHSEEIAKMWMHLVHTGDFDSETKLVDPHVKFKIDGREIIGREVFMQLMIELRHILRDSKIDDLNRQGEFLHVHGQVHGELIIGDKNFEINHKVEFIIIKVNGRWFAHTIIFR", "values": [
      {"measurement": "protease stability score", "result": 1.64}
    ]},
    {"sequence": "DEDDEHTHEMLKLVITAINTGDFEKWRHMADPNVRSDIDGQEVHGRETIIEVWRRIEKELGIENVEVHTRRVEVINGVAHIDGHIRFNGRTHKVRIEVYLINGKIQEFVLSRH", "values": [
      {"measurement": "protease stability score", "result": 1.45}
    ]},
    {"sequence": "DEDDEKEKFLLELLLEALKTGDWQIFEDLADPHMKFIFNGREYHGMETFSRLMEEFLKRFPNLRIRRIEIEDHHKQGNKVELDARLYSSQGNKRLNHKMILISEKINGRWLIHSLSIE", "values": [
      {"measurement": "protease stability score", "result": 2.61}
    ]},
    {"sequence": "DEDDELAERFFRFWLEFVLTGDEDSSSHLLDPDVRTKYNGVDFHGMESHSKLLLELRIKDFRFTRIRIINGRLEIHGRMHQEIDGKKVDTTVTIDSIKINGKWRVKTINIG", "values": [
      {"measurement": "protease stability score", "result": 1.73}
    ]},
    {"sequence": "DEDDELEDKFEEILRYSLHTGDWEEWRKRVDPHVKLIINGREIIGMERAAKFFIDLERKLGVDVKHHEIRHEDKQGDKLHLETRVELRQGDKVIILHMHLHLEKINGQWIIREVRFD", "values": [
      {"measurement": "protease stability score", "result": 1.47}
    ]},
    {"sequence": "DEDDELKKTAVHDFTRDIATGDEESLHKLVDPHVRTTFDGQDLIGREHMWEHIHRLLRRYKNIRSEHIHIREIHVVDGVVESHTHIHMRIGEFKFIFNVHVFILKVDGVWFVHEAHYV", "values": [
      {"measurement": "protease stability score", "result": 0.886}
    ]},
    {"sequence": "DEDDELMKRFVDLLLEQLQTGDWRYIARMVDPHVRSDVDIDGVHLKYHGREMYVKLFTDLGAKHMELKHIEVQGDKADIHSHVHFDGQEREIIIYSFKVNGRWRTKRLEVRTI", "values": [
      {"measurement": "protease stability score", "result": 0.932}
    ]},
    {"sequence": "DEDDELSHRAVLLYMEAVLTGNEDFMSRLVDPDVRHIVGDKEYIGREQFVEWFNEFVEKVKNVTVRLRHHDIQGDKVVVHTEYRVNGRTWHEHVIILKINGKWRLKELRIHIE", "values": [
      {"measurement": "protease stability score", "result": 0.723}
    ]},
    {"sequence": "DEDDELSRKAREFTSEVLRTGDEHSLLRMADPNTRNIVGNKEEHGWEHFEHFVREHWRRFGITNVDVKLEDLRVVDGRIEADMRVRVNGVERTWHFLIRKIDGKWRMESIEIR", "values": [
      {"measurement": "protease stability score", "result": 0.416}
    ]},
    {"sequence": "DEDDELYKRVFELIEHDNHTGNEKSHLELADPHARLLYDGKLVIGRELLLEWMRRLGIDVIRHMDFKRFRIQGDKIEMDVRVHGEVNGRHIDTDTHLIARKVNGRWLLEEIRIK", "values": [
      {"measurement": "protease stability score", "result": 0.937}
    ]},
    {"sequence": "DEDDEMWRELFEMYIRLARTGDEKADELLMDPDARIEIGDKRWHGREWTHFFLERVDHVHRVEFRVDDRRIQGDKVDVDGTFILDIHQGDKRIHTSIRSHLTVLKVDGKWRVHQMELR", "values": [
      {"measurement": "protease stability score", "result": 1.73}
    ]},
    {"sequence": "DEDDENIEKVLRTLFKLIHTGDWRTWLRFFDPHVKLEIGDKRLHGREVAEEFIRHRIEHLGVDRVEVRLHSFDKQGNKLHSDMRLYVGDKEFNVEMHMEKVNGKWIVRVFSID", "values": [
      {"measurement": "protease stability score", "result": 1.38}
    ]},
    {"sequence": "DEDDENNREMHDLSIRLFKTGDFDKIHKLMDPNAKLVIDIGDKHLHHHGREEASKRIFEIWHTLGVDHVHIKTHRHYGEKITIDMHLDINGQDTELIIVVLKINGRWLIQSVSMHFR", "values": [
      {"measurement": "protease stability score", "result": 1.35}
    ]},
    {"sequence": "DEDDENVEQFIELFNEVMNTGDWRSLKRMIDPNARSRIGEKHLIGREMLEDFRHQADHVKIRDMKIERSHVINGRVLVDGIVHGEENFNGRRFLVNREVHLVVVKVNGRWFLRSIEFG", "values": [
      {"measurement": "protease stability score", "result": 0.809}
    ]},
    {"sequence": "DEDDERSRLFLEEMMRTLLTGDERKSHELADPRVRINVNGRHIHGRELWNRFVHEARIRITHHRIHSRDIYNGRIELDVELRGDIHIGDKDIHLDTRIILFVLKVNGRWHLEIMEIV", "values": [
      {"measurement": "protease stability score", "result": 1.25}
    ]},
    {"sequence": "DEDDEVAIKFLEDIIQVWETGDEEEFSRLFDPDYRVHIGDKTLHGREIVVQEILEHLRRLGIERFEVRIHIRHAHFYNGRLDLNGELVIIINGKELRRHTHFVVLKVNGRWLLEREEVK", "values": [
      {"measurement": "protease stability score", "result": 1.76}
    ]},
    {"sequence": "DEDDEVSKFVAHVLSRVFHTGDEENLQKLADPNVRLHIGDKHHIGRETFIRWLRHFLDRADHVDSDVHDVRSIDGRIWADTRLRLEINGQTIEREVIIVIHKINGRWILHRIEIR", "values": [
      {"measurement": "protease stability score", "result": 1.49}
    ]},
    {"sequence": "DEDDHFWERLTEIILHILQTGNEEALHRMLDPHMRLDYNGRSFHGRELAQKALMRFWEDLGVDHIRVKDRRVQGDKVHLHGEIIIDGRLHETREHWLIVNGRIKHVRLEIR", "values": [
      {"measurement": "protease stability score", "result": 0.696}
    ]},
    {"sequence": "DEDDKDIEMVLRRLIEMVMTGDFEKAKRYADPDMQLDIGDKHFVGRETTITVLREWREHLGIDHVDIDHVHLHIIDGQVIVDLDITHRAENREIRVRFIHYVDKINGRWLVRRVDVKIH", "values": [
      {"measurement": "protease stability score", "result": 2.31}
    ]},
    {"sequence": "DEDDKEAEKALRDMVHSWVTGDEQKNQELADPHVRVIIGEFNFVGRDDLDKWLREIRIHNIEIKDIDVFDGKVELKGTLTIRIGDKEVRHEVDFYMVKINGRWHLHRIQVH", "values": [
      {"measurement": "protease stability score", "result": 2.08}
    ]},
    {"sequence": "DEDDKKAEDFANVIAHNLMTGDEEKHNKMIDPNVKIFINGQTVHGRDEFSKVMRRYKNLRIDWEVEELEIVNGQVRLKGHLHVEVNGVETRIDTHIVVTKVNGRWHMKEIYYH", "values": [
      {"measurement": "protease stability score", "result": 1.62}
    ]},
    {"sequence": "DEDDKLLEKWVKDLREALRTGDEQTLLKLIDPNTRLEIGDKDFHGREVIVKLWKDLGMEIRDVKVHDIKRQGDFLELDIRIDVIINGVRENREHKIYALKVNGKWFVKTQIDE", "values": [
      {"measurement": "protease stability score", "result": 2.13}
    ]},
    {"sequence": "DEDDKRSEKYLQKLLTDTHTGDETAYRDLADPHVRIEFNGREWHGWKRAHEVFHRILEEMRLKDLRIEDVRKQGEKVRLHIRLHSTVDGKQVDLELEIILLKVNGQWYIKDVTLI", "values": [
      {"measurement": "protease stability score", "result": 0.886}
    ]},
    {"sequence": "DEDDNDMEEMVRLFDRDLHTGNEDLLTELADPHARFDINGVELHGMHEFVTIWLEIRFILRDSRVEHIHIQGDKAHIKSRLHGEMIFNGRTTIVHSEVHIYFEKIDGRWMIHRHIVK", "values": [
      {"measurement": "protease stability score", "result": 0.102}
    ]},
    {"sequence": "DEDDQWSEMLAKKYLDRVLTGDEKRMKSLLDPNVRLSVNGVDMHGREVFVHWLRTVLNRVDHQELRLRHLHSQGDKAHVDTEVIENWDGVKIVKETELEFIFVNGRFHSVFHRER", "values": [
      {"measurement": "protease stability score", "result": 0.267}
    ]},
    {"sequence": "DEDDRDMREFWELLFHYLLTGDWESLEKLIDPNARIRVNGKELHGMHYHIRQLTHEVKRFDHIDQRIHHSSVINGKIHLDIHLIINVDGQSFVIHIKMHVDKVDGRWLTRSVHIH", "values": [
      {"measurement": "protease stability score", "result": 1.09}
    ]},
    {"sequence": "DEDDRHSERMSEYMIKVWMTGDEDAEKRLFDPHARIDVDGQEFIGREELHKISHEHLRKLGFDHFHVRHVELRLIDGKAHLSLDTEVRVGDFKFETSIYNNFEKVNGKWEIRELQVRIR", "values": [
      {"measurement": "protease stability score", "result": 1.2}
    ]},
    {"sequence": "DEDDRIHEWSMRWLIQSLRTGDEDMLREYIDPHTRVHVNGKEEHGREAADKLAKRIDHLHHLIIRSEERQGDKIIMDIERDILIDGVRINTRVSLILLKVNGRWFMKSIHFL", "values": [
      {"measurement": "protease stability score", "result": 0.826}
    ]},
    {"sequence": "DEDDRLAEDLLRLIYHALQTGDEKHLEDFMDPHTQIIIEWNGVRDDTHGREEFSRKFHEQVRELRVHFHQNSIHVINGRAHNDGRLELNINGKIIKLKVILEIQVINGRIKEIRIIVR", "values": [
      {"measurement": "protease stability score", "result": 1.95}
    ]},
    {"sequence": "DEDDRVAEHALRLLFELLRTGDWEHILEMFDPNMRLDFDGKKWHGRESFRELFTRFLEEIRIHDVKVEDFKVFDGRVEVDTRIRGKYGDKETKLETKIVALKINGRWVLESSHYN", "values": [
      {"measurement": "protease stability score", "result": 0.898}
    ]},
    {"sequence": "DEDEDDAERVFEELRKLIITGDEEEWEKLADPHVRVIINGRELHGREEWARFMRHMRIKNEHVHLRRMRVVDGRIEIDGEMDFRVDFNGQERRTRTDTNLIVTKYDGRWKLHHIEIR", "values": [
      {"measurement": "protease stability score", "result": 1.33}
    ]},
    {"sequence": "DEDEDEIKRIVEIIEHALRTGDEDLMRRLFDPNARLDINGREVHGRESFIEILHHWLHELRFKSLRLHQVHIVDGKAHVDTRVTYHINGVEIHIETERNMLKVDGRWFITHEHHR", "values": [
      {"measurement": "protease stability score", "result": 0.025}
    ]},
    {"sequence": "DEDEDESRRFHEEFIKRILTGDEDEFVKLLDPDVRIEIGDKKSIGRERALERFHRMLTEIRVHHVELRERTIQGDKVFLNMEVDLEFNGRRDRTKFHMIIWKVDGQWTLSEMRVK", "values": [
      {"measurement": "protease stability score", "result": 2.48}
    ]},
    {"sequence": "DEDEDFIRHQIQLYIELFETGDWRSLKRLADPNARHHINGRDLHGMDLFRRHIEHMGIKIKHIKLRDMRVIGDKIELKVENNVEIDGRERSLEEEIIARKIDGRWILESSTIR", "values": [
      {"measurement": "protease stability score", "result": 0.39}
    ]}
  ]
}
